Measurements taken from patent US12331106B2, “Anti-angiopoietin-2 antibodies that induce Tie2 activation” (Institute for Basic Science, priority 2018, dated 2025).
Where a chain is given by its changes, count along the chain named. “Also recorded” adds a separate entry of the source. Like-named read-outs stand apart in the source and are kept apart here.

Biological target: T1, hAng2-RBD (Homo sapiens, UniProt O15123)
T1 construct: made in house; host or cells: HEK293F
T1 sequence (O15123 276-496): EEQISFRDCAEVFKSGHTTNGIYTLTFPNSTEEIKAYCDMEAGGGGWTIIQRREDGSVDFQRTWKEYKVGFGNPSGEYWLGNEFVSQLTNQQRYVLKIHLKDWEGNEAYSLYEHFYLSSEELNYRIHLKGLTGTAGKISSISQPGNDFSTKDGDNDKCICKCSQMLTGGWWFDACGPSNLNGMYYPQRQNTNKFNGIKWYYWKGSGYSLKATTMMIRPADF
Format: binding
Conditions: for epitope of hAng2-RBD to which the antibody binds: deuterium uptake difference 0.5-1 Da or more considered significant
Method: The antigenic determinants (epitopes) of hAng2 recognized by mouse monoclonal antibodies, 2C8 and 4B9, were analyzed by HDX-MS (Hydrogen/deuterium exchange-mass spectrometry) technique. HDX-MS analysis methods are described in the following articles; Houde D, Engen J R (2013) Methods Mol. Biol. 988: 269-89 and Houde et al. (2011) J. Pharm. Sci. 100 (6), 2071.
Recombinant hAng2-RBD protein was used to analyze the epitopes of antibodies 2C8 and 4B9. […] The prepared hAng2-RBD/antibody complexes were diluted 15 times with deuterium labeling buffer, labeled at various time, and then quenched with the same volume of quenching buffer. The labeling reaction time was 0 min (undeuterium), 0.33 min, 10 min, 60 min and 240 min. However, in undeuterium condition, the deuterium labeling buffer was replaced with equilibrium buffer and the reaction was immediately stopped with quenching buffer. For mass spectrometry, the deuterium labeled hAng2-RBD/antibody samples were loaded on a pepsin column and peptide digestion was proceeded.
The deuterium uptake difference between hAng2-RBD alone and the hAng2-RBD-antibody complex conditions was comparatively analyzed, and a region showing a distinct decrease in the deuterium uptake is either a peptide to which the antibody binds directly, or a structurally changed region. When the deuterium uptake difference between hAng2-RBD alone and the hAng2-RBD-antibody complex was 0.5-1 Da or more, it was considered significant.
In the case of antibody 4B9, it cannot be ruled out that an undetermined region (residues 25 to 40 of SEQ ID NO: 2) can be included in the scope of the epitope. The epitope analysis results for each antibody are shown in different colors on the 3D structure of hAng2-RBD, which was generated using PyMol software (FIG. 2).

B1: 2C8: mouse monoclonal anti-Ang2 antibody; VH SEQ ID NO: 19, VL SEQ ID NO: 21; hybridoma KCLRF-BP-00417 (antibody, V domains shown)
VH: QVQLQQSGPQLVRPGASVKISCKASGYSFTSYWMHWVKQRPGQGLEWIGMIDPSDSETRLNQKFKDKASLTVDKSSSTAYMQLSSPTSGDSAVYYCARRFYYGSDWYFDVWGAGSTVTVSS
VL: DIVMTQSHKFMSTSVGDRVSITCKASQDVGTAVAWYQQKPGQSPKLLIYWASTRHTGVPDRFTGSGSGTDFTLTISNVQSEDLADYFCQQYSSYPLTFGSGTKLEIK
modifications: Heavy Chain Variable Region; Light Chain Variable Region
notes: mouse monoclonal anti-Ang2 antibody; hybridoma KCLRF-BP-00417
For B1, the “Relative Uptake (Da) Δ” value (2C8, residues 52-60 (SEQ ID NO: 2), exposure time 0.00 min) was 0.15 Da, the “Relative Uptake (Da) Δ” value (2C8, residues 52-60 (SEQ ID NO: 2), exposure time 0.33 min) was 0.21 Da and the “Relative Uptake (Da) Δ” value (2C8, residues 52-60 (SEQ ID NO: 2), exposure time 10.00 min) was 0.41 Da. For the same molecule, the “Relative Uptake (Da) Δ” value (2C8, residues 52-60 (SEQ ID NO: 2), exposure time 60.00 min) was 0.14 Da, the “Relative Uptake (Da) Δ” value (2C8, residues 52-60 (SEQ ID NO: 2), exposure time 240.00 min) was 0.08 Da and the “Relative Uptake (Da) Δ” value (2C8, residues 61-77 (SEQ ID NO: 2), exposure time 0.00 min) was 0.08 Da. For the same molecule, the “Relative Uptake (Da) Δ” value (2C8, residues 61-77 (SEQ ID NO: 2), exposure time 0.33 min) was 1.18 Da, the “Relative Uptake (Da) Δ” value (2C8, residues 61-77 (SEQ ID NO: 2), exposure time 10.00 min) was 1.78 Da and the “Relative Uptake (Da) Δ” value (2C8, residues 61-77 (SEQ ID NO: 2), exposure time 60.00 min) was 1.36 Da. The “Relative Uptake (Da) Δ” value (2C8, residues 61-77 (SEQ ID NO: 2), exposure time 240.00 min) was 1.31 Da, the “Relative Uptake (Da) Δ” value (2C8, residues 61-78 (SEQ ID NO: 2), exposure time 0.00 min) was 0.06 Da and the “Relative Uptake (Da) Δ” value (2C8, residues 61-78 (SEQ ID NO: 2), exposure time 0.33 min) was 1.15 Da. The “Relative Uptake (Da) Δ” value (2C8, residues 61-78 (SEQ ID NO: 2), exposure time 10.00 min) was 1.80 Da, the “Relative Uptake (Da) Δ” value (2C8, residues 61-78 (SEQ ID NO: 2), exposure time 60.00 min) was 1.33 Da and the “Relative Uptake (Da) Δ” value (2C8, residues 61-78 (SEQ ID NO: 2), exposure time 240.00 min) was 1.34 Da. The “Relative Uptake (Da) Δ” value (2C8, residues 67-77 (SEQ ID NO: 2), exposure time 0.00 min) was −0.12 Da, the “Relative Uptake (Da) Δ” value (2C8, residues 67-77 (SEQ ID NO: 2), exposure time 0.33 min) was 0.89 Da and the “Relative Uptake (Da) Δ” value (2C8, residues 67-77 (SEQ ID NO: 2), exposure time 10.00 min) was 1.58 Da. For the same molecule, the “Relative Uptake (Da) Δ” value (2C8, residues 67-77 (SEQ ID NO: 2), exposure time 60.00 min) was 1.21 Da, the “Relative Uptake (Da) Δ” value (2C8, residues 67-77 (SEQ ID NO: 2), exposure time 240.00 min) was 1.07 Da and the “Relative Uptake (Da) Δ” value (2C8, residues 67-78 (SEQ ID NO: 2), exposure time 0.00 min) was 0.30 Da. For the same molecule, the “Relative Uptake (Da) Δ” value (2C8, residues 67-78 (SEQ ID NO: 2), exposure time 0.33 min) was 0.95 Da, the “Relative Uptake (Da) Δ” value (2C8, residues 67-78 (SEQ ID NO: 2), exposure time 10.00 min) was 1.66 Da and the “Relative Uptake (Da) Δ” value (2C8, residues 67-78 (SEQ ID NO: 2), exposure time 60.00 min) was 1.33 Da. The “Relative Uptake (Da) Δ” value (2C8, residues 67-78 (SEQ ID NO: 2), exposure time 240.00 min) was 1.04 Da, the “Relative Uptake (Da) Δ” value (2C8, residues 78-84 (SEQ ID NO: 2), exposure time 0.00 min) was 0.00 Da and the “Relative Uptake (Da) Δ” value (2C8, residues 78-84 (SEQ ID NO: 2), exposure time 0.33 min) was −0.01 Da. For the same molecule, the “Relative Uptake (Da) Δ” value (2C8, residues 78-84 (SEQ ID NO: 2), exposure time 10.00 min) was 0.01 Da, the “Relative Uptake (Da) Δ” value (2C8, residues 78-84 (SEQ ID NO: 2), exposure time 60.00 min) was 0.11 Da and the “Relative Uptake (Da) Δ” value (2C8, residues 78-84 (SEQ ID NO: 2), exposure time 240.00 min) was 0.36 Da. The “epitope of hAng2-RBD to which the antibody binds” value was “residues 61 to 78 of SEQ ID NO: 2”.

B2: 4B9: mouse monoclonal anti-Ang2 antibody; VH SEQ ID NO: 9, VL SEQ ID NO: 11; hybridoma KCLRF-BP-00418 (antibody, V domains shown)
VH: EVQLVESGGGLVKPGGSLKLSCAASGFTFSDYYMYWVRQTPEKRLEWVATISVGGSFTYYPDSVKGRFTISRDNAKNNLYLQMSSLKSEDTAMYYCARDWGLRPWFVYWGQGTLVTVSA
VL: B1 VL with G30S, F71Y, N77S, S80A, D85L, F87Y, Y91H, S92Y, Y94T, L96P
modifications: Heavy Chain Variable Region; Light Chain Variable Region
notes: mouse monoclonal anti-Ang2 antibody; hybridoma KCLRF-BP-00418
In the case of B2, the “Relative Uptake (Da) Δ” value (4B9, residues 14-23 (SEQ ID NO: 2), exposure time 0.00 min) is reported as 0.25 Da, the “Relative Uptake (Da) Δ” value (4B9, residues 14-23 (SEQ ID NO: 2), exposure time 0.33 min) is reported as 0.34 Da and the “Relative Uptake (Da) Δ” value (4B9, residues 14-23 (SEQ ID NO: 2), exposure time 10.00 min) is reported as 0.83 Da. The “Relative Uptake (Da) Δ” value (4B9, residues 14-23 (SEQ ID NO: 2), exposure time 60.00 min) was 0.78 Da, the “Relative Uptake (Da) Δ” value (4B9, residues 14-23 (SEQ ID NO: 2), exposure time 240.00 min) was 0.60 Da and the “Relative Uptake (Da) Δ” value (4B9, residues 14-24 (SEQ ID NO: 2), exposure time 0.00 min) was 0.01 Da. For the same molecule, the “Relative Uptake (Da) Δ” value (4B9, residues 14-24 (SEQ ID NO: 2), exposure time 0.33 min) was 0.33 Da, the “Relative Uptake (Da) Δ” value (4B9, residues 14-24 (SEQ ID NO: 2), exposure time 10.00 min) was 1.50 Da and the “Relative Uptake (Da) Δ” value (4B9, residues 14-24 (SEQ ID NO: 2), exposure time 60.00 min) was 1.35 Da. For the same molecule, the “Relative Uptake (Da) Δ” value (4B9, residues 14-24 (SEQ ID NO: 2), exposure time 240.00 min) was 0.80 Da, the “Relative Uptake (Da) Δ” value (4B9, residues 41-47 (SEQ ID NO: 2), exposure time 0.00 min) was 0.15 Da and the “Relative Uptake (Da) Δ” value (4B9, residues 41-47 (SEQ ID NO: 2), exposure time 0.33 min) was 1.02 Da. For the same molecule, the “Relative Uptake (Da) Δ” value (4B9, residues 41-47 (SEQ ID NO: 2), exposure time 10.00 min) was 0.92 Da, the “Relative Uptake (Da) Δ” value (4B9, residues 41-47 (SEQ ID NO: 2), exposure time 60.00 min) was 1.15 Da and the “Relative Uptake (Da) Δ” value (4B9, residues 41-47 (SEQ ID NO: 2), exposure time 240.00 min) was 1.18 Da. For the same molecule, the “Relative Uptake (Da) Δ” value (4B9, residues 47-60 (SEQ ID NO: 2), exposure time 0.00 min) was 0.05 Da, the “Relative Uptake (Da) Δ” value (4B9, residues 47-60 (SEQ ID NO: 2), exposure time 0.33 min) was −0.13 Da and the “Relative Uptake (Da) Δ” value (4B9, residues 47-60 (SEQ ID NO: 2), exposure time 10.00 min) was −0.06 Da. For the same molecule, the “Relative Uptake (Da) Δ” value (4B9, residues 47-60 (SEQ ID NO: 2), exposure time 60.00 min) was −0.01 Da, the “Relative Uptake (Da) Δ” value (4B9, residues 47-60 (SEQ ID NO: 2), exposure time 240.00 min) was −0.11 Da and the “epitope of hAng2-RBD to which the antibody binds” value was “residues 14 to 24 of SEQ ID NO: 2; also recorded: residues 41 to 47 of SEQ ID NO: 2”. The “Relative Uptake (Da) hAng2-RBD + 4B9” value (residues 14-23 (SEQ ID NO: 2), exposure time 0.00 min) was 0.55 Da, the “Relative Uptake (Da) hAng2-RBD + 4B9” value (residues 14-23 (SEQ ID NO: 2), exposure time 0.33 min) was 0.97 Da and the “Relative Uptake (Da) hAng2-RBD + 4B9” value (residues 14-23 (SEQ ID NO: 2), exposure time 10.00 min) was 1.38 Da. For the same molecule, the “Relative Uptake (Da) hAng2-RBD + 4B9” value (residues 14-23 (SEQ ID NO: 2), exposure time 60.00 min) was 1.49 Da, the “Relative Uptake (Da) hAng2-RBD + 4B9” value (residues 14-23 (SEQ ID NO: 2), exposure time 240.00 min) was 1.66 Da and the “Relative Uptake (Da) hAng2-RBD + 4B9” value (residues 14-24 (SEQ ID NO: 2), exposure time 0.00 min) was 0.76 Da. For the same molecule, the “Relative Uptake (Da) hAng2-RBD + 4B9” value (residues 14-24 (SEQ ID NO: 2), exposure time 0.33 min) was 1.27 Da, the “Relative Uptake (Da) hAng2-RBD + 4B9” value (residues 14-24 (SEQ ID NO: 2), exposure time 10.00 min) was 1.75 Da and the “Relative Uptake (Da) hAng2-RBD + 4B9” value (residues 14-24 (SEQ ID NO: 2), exposure time 60.00 min) was 2.05 Da. The “Relative Uptake (Da) hAng2-RBD + 4B9” value (residues 14-24 (SEQ ID NO: 2), exposure time 240.00 min) was 2.61 Da, the “Relative Uptake (Da) hAng2-RBD + 4B9” value (residues 41-47 (SEQ ID NO: 2), exposure time 0.00 min) was 0.16 Da and the “Relative Uptake (Da) hAng2-RBD + 4B9” value (residues 41-47 (SEQ ID NO: 2), exposure time 0.33 min) was 0.20 Da. For the same molecule, the “Relative Uptake (Da) hAng2-RBD + 4B9” value (residues 41-47 (SEQ ID NO: 2), exposure time 10.00 min) was 0.43 Da, the “Relative Uptake (Da) hAng2-RBD + 4B9” value (residues 41-47 (SEQ ID NO: 2), exposure time 60.00 min) was 0.54 Da and the “Relative Uptake (Da) hAng2-RBD + 4B9” value (residues 41-47 (SEQ ID NO: 2), exposure time 240.00 min) was 0.61 Da. The “Relative Uptake (Da) hAng2-RBD + 4B9” value (residues 47-60 (SEQ ID NO: 2), exposure time 0.00 min) was 0.96 Da, the “Relative Uptake (Da) hAng2-RBD + 4B9” value (residues 47-60 (SEQ ID NO: 2), exposure time 0.33 min) was 1.94 Da and the “Relative Uptake (Da) hAng2-RBD + 4B9” value (residues 47-60 (SEQ ID NO: 2), exposure time 10.00 min) was 2.53 Da. For the same molecule, the “Relative Uptake (Da) hAng2-RBD + 4B9” value (residues 47-60 (SEQ ID NO: 2), exposure time 60.00 min) was 2.69 Da and the “Relative Uptake (Da) hAng2-RBD + 4B9” value (residues 47-60 (SEQ ID NO: 2), exposure time 240.00 min) was 3.06 Da.
